Test results as given in PMC3409183.

Tested on: ribosomal protein L5 (TbL5) (Trypanosoma brucei)
Assay: EMSA
Settings: EMSA: 10 mM Tris-HCl pH 7.4, 150 mM KCl, 0.1 mM DTT, 0.1 mM EDTA, 0.1% NP-40, 20 min room temperature; filter binding: 10 mM Tris pH 7.4, 1 mM EDTA, 100 mM …

Work on T. brucei 5S rRNA yielded a Kd of 12 nM.
